In the supplement of paper PMC10567573 one finds protein stability index data, which are given here for 97 variants.

To fix the notation:
B1: MGC16075 (parent)
chain: AGSRQALSFEVPPCNYDPEKWIQ
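Note: lentivirally expressed fusions sorted by FACS into six bins by GFP to DsRed ratio, PSI derived from sequencing read proportions per bin multiplied by bin number.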

This data set covers variants of B1. Kind of data set: protein stability index of a GFP-peptide fusion (GPS, HEK-293T) (PSI 1-6); higher = more stable. Conditions: c terminus: native.
Regarding AGSRQALSFEVPPCNYDPEKIIQ [W21I], the protein stability index was 4.03. Next, AGSRQALSFEVPPCNYDPEKAIQ [W21A]: 2.33. Under AGSRQALSFEVPPCNYDPEKNIQ [W21N] stands 2.42; under AGSRQALSFEVPPCNYDPEKKIQ [W21K], 3.53; under AGSRQNLSFEVPPCNYDPEKWIQ [A6N], 2.16. Under AGSRQTLSFEVPPCNYDPEKWIQ [A6T] stands 1.53; under AGSRQILSFEVPPCNYDPEKWIQ [A6I], 3.05; under AGSRQWLSFEVPPCNYDPEKWIQ [A6W], 3.24. For the variant AGSRQMLSFEVPPCNYDPEKWIQ [A6M], the protein stability index was found to be 2.98. AGSRQSLSFEVPPCNYDPEKWIQ [A6S]: the protein stability index turned out to be 1.6. Consider AGSRQDLSFEVPPCNYDPEKWIQ [A6D], for which the protein stability index was determined as 2.91. Under AGSRQALSFEVPPCCYDPEKWIQ [N15C] stands 2.23. Under AGSRQALSFEVPPCYYDPEKWIQ [N15Y] stands 2.7; under AGSRQALSFEVPPCKYDPEKWIQ [N15K], 2.53. Under AGSRQALSFEVPPCMYDPEKWIQ [N15M] stands 1.84. For AGSRQALSFVVPPCNYDPEKWIQ [E10V], the protein stability index turned out to be 1.08.

In the case of AGSRQALSFSVPPCNYDPEKWIQ [E10S], the protein stability index was 2.44.

Regarding AGSRQALSFHVPPCNYDPEKWIQ [E10H], the protein stability index was determined as 3.09. Next, AGSRQALSFNVPPCNYDPEKWIQ [E10N]: 1.7. Next, AGSRQALSFRVPPCNYDPEKWIQ [E10R]: 1.97; AGSRQALSFPVPPCNYDPEKWIQ [E10P]: 2.3. For the variant AGSRQALSFEVPNCNYDPEKWIQ [P13N], the protein stability index amounted to 1.27. Turning to AGSRQALSFEVPPCNYDPEKWID [Q23D], the protein stability index was determined as 1.34. Next, AGSRQALSFEVPPCNYDPEKWII [Q23I]: 2.43. For AGSRQALSFEVPPCNYQPEKWIQ [D17Q], the protein stability index was 2.18.

With AGSRQALSFEVPPCNYCPEKWIQ [D17C], the protein stability index was 1.29. Next, AGSRQALSFEVPPCNYGPEKWIQ [D17G]: 2.29; AGSRQALSFEVPPCNYKPEKWIQ [D17K]: 3.23. Take AGKRQALSFEVPPCNYDPEKWIQ [S3K]: the protein stability index is 2.32. Under AGYRQALSFEVPPCNYDPEKWIQ [S3Y] stands 1.28; under AGSRQALSFEVAPCNYDPEKWIQ [P12A], 1.79; under AGSRQALSFEVNPCNYDPEKWIQ [P12N], 1.67. Next, AGSRQALSFEVRPCNYDPEKWIQ [P12R]: 1.81; AGSRQALSFEVDPCNYDPEKWIQ [P12D]: 1.97. As to AGSRQALSFEVEPCNYDPEKWIQ [P12E], the protein stability index is 2.14. AGSRQALSFEVTPCNYDPEKWIQ [P12T]: the protein stability index was found to be 1.99. As for AGSRQALSFEVPPCNYDPEIWIQ [K20I], the protein stability index came to 2.46.

On to AGSRQALSFEVPPCNYDPENWIQ [K20N], for which the protein stability index amounted to 3.71. As to AGSRQALSFEVPPCNYDPESWIQ [K20S], the protein stability index is 3.77. Next, CGSRQALSFEVPPCNYDPEKWIQ [A1C]: 1.19.

As to EGSRQALSFEVPPCNYDPEKWIQ [A1E], the protein stability index was 2.19. Next, DGSRQALSFEVPPCNYDPEKWIQ [A1D]: 2.9; WGSRQALSFEVPPCNYDPEKWIQ [A1W]: 3.29.

With AGSRQALSFEVPPCNQDPEKWIQ [Y16Q], the protein stability index amounted to 2.54. Next, AGSRQALSFEVPPCNSDPEKWIQ [Y16S]: 1.48. Under AGSRQALSFEVPPCNFDPEKWIQ [Y16F] stands 1.68; under AGSRQALSFEVPPCNNDPEKWIQ [Y16N], 2.2.

Turning to AGSLQALSFEVPPCNYDPEKWIQ [R4L], the protein stability index was 2.53. Next, AGSVQALSFEVPPCNYDPEKWIQ [R4V]: 2.61; AGSHQALSFEVPPCNYDPEKWIQ [R4H]: 2.67; AGSDQALSFEVPPCNYDPEKWIQ [R4D]: 2.41.

In the case of AGSQQALSFEVPPCNYDPEKWIQ [R4Q], the protein stability index is 1.87. Consider AGSAQALSFEVPPCNYDPEKWIQ [R4A], for which the protein stability index worked out at 2.66. Next, AMSRQALSFEVPPCNYDPEKWIQ [G2M]: 2.88. Under AHSRQALSFEVPPCNYDPEKWIQ [G2H] stands 2.4; under AQSRQALSFEVPPCNYDPEKWIQ [G2Q], 2.2; under AGSRQALSFECPPCNYDPEKWIQ [V11C], 2.02. Regarding AGSRQALSFELPPCNYDPEKWIQ [V11L], the protein stability index is 1.3. For the variant AGSRQALSFERPPCNYDPEKWIQ [V11R], the protein stability index is 2.

On to AGSRQALSYEVPPCNYDPEKWIQ [F9Y], for which the protein stability index is 2.

In the case of AGSRQALSSEVPPCNYDPEKWIQ [F9S], the protein stability index is 2.77.

Regarding AGSRQALSCEVPPCNYDPEKWIQ [F9C], the protein stability index is 2.57. As to AGSRQALSQEVPPCNYDPEKWIQ [F9Q], the protein stability index is 3.05.

Regarding AGSRQALSHEVPPCNYDPEKWIQ [F9H], the protein stability index is 2.86. Turning to AGSRQALSGEVPPCNYDPEKWIQ [F9G], the protein stability index came out at 3.14. On to AGSRQALSPEVPPCNYDPEKWIQ [F9P], for which the protein stability index came to 3.09. As to AGSRQALSVEVPPCNYDPEKWIQ [F9V], the protein stability index was determined as 2.57. Next, AGSRQALSMEVPPCNYDPEKWIQ [F9M]: 2.29; AGSRQALSREVPPCNYDPEKWIQ [F9R]: 2.78; AGSRQALSDEVPPCNYDPEKWIQ [F9D]: 3.05.

AGSRQALSFEVPPCNYDVEKWIQ [P18V]: the protein stability index worked out at 1.99. Consider AGSRQALSFEVPPCNYDEEKWIQ [P18E], for which the protein stability index is 2.79.

With AGSRQALSFEVPPCNYDQEKWIQ [P18Q], the protein stability index turned out to be 2.03.

Turning to AGSRQALSFEVPPCNYDWEKWIQ [P18W], the protein stability index is 1.1. On to AGSRQALSFEVPPCNYDCEKWIQ [P18C], for which the protein stability index was 2.3.

As for AGSRQANSFEVPPCNYDPEKWIQ [L7N], the protein stability index worked out at 2.72.

Turning to AGSRQADSFEVPPCNYDPEKWIQ [L7D], the protein stability index came out at 2.45. For AGSRQALSFEVPPCNYDPHKWIQ [E19H], the protein stability index was 2.64. For AGSRQALSFEVPPCNYDPKKWIQ [E19K], the protein stability index amounted to 3.27. In the case of AGSRQALSFEVPPCNYDPYKWIQ [E19Y], the protein stability index turned out to be 2.07. Next, AGSRQALSFEVPPCNYDPRKWIQ [E19R]: 2.14; AGSRQALSFEVPPCNYDPQKWIQ [E19Q]: 2.72; AGSRQALSFEVPPHNYDPEKWIQ [C14H]: 2.1. On to AGSRQALSFEVPPENYDPEKWIQ [C14E], for which the protein stability index worked out at 2.21. As for AGSRQALSFEVPPINYDPEKWIQ [C14I], the protein stability index turned out to be 1.59. As to AGSRQALSFEVPPNNYDPEKWIQ [C14N], the protein stability index turned out to be 1.92. Next, AGSRQALSFEVPPKNYDPEKWIQ [C14K]: 1.64. With AGSRQALSFEVPPGNYDPEKWIQ [C14G], the protein stability index amounted to 1.42. Under AGSRQALSFEVPPCNYDPEKWYQ [I22Y] stands 2.85; under AGSRQALSFEVPPCNYDPEKWSQ [I22S], 5.03; under AGSRQALSFEVPPCNYDPEKWEQ [I22E], 4.4. Regarding AGSRSALSFEVPPCNYDPEKWIQ [Q5S], the protein stability index came to 1.48. Next, AGSRAALSFEVPPCNYDPEKWIQ [Q5A]: 1.8; AGSRQALKFEVPPCNYDPEKWIQ [S8K]: 2.09; AGSRQALLFEVPPCNYDPEKWIQ [S8L]: 1.98.

Consider AGSRQALPFEVPPCNYDPEKWIQ [S8P], for which the protein stability index was 1.91. Under AGSRQALTFEVPPCNYDPEKWIQ [S8T] stands 3.31.
